The values below come from patent US20170165339A1 (IMMATICS BIOTECHNOLOGIES, published 2017).

The target of this assay is HLA-A*02 (human). The experiment in a line: UV peptide-exchange ELISA, yield grade.

For the molecule SLTEVSLPL [SLTEVSLPL (SEQ ID NO: 45)], the peptide exchange yield fell in the range of 50 to 75%.
